Our source for the binding result and Kd values is paper PMC7244319.

One data set deals with GST-mLysRS (Mus musculus, UniProt Q99MN1 1-595). Nature of the data set: streptavidin pull-down.
The target in a further data set is GST-LysRS (human) (Homo sapiens, UniProt Q15046 1-597). Description: streptavidin pull-down, WB quantification.
The target of the next data set is GST-cGAS (human) (Homo sapiens, UniProt Q8N884 1-522). Nature of the data set: streptavidin pull-down, WB quantification.
Sequence of GST-cGAS (human) (Q8N884 whole entry): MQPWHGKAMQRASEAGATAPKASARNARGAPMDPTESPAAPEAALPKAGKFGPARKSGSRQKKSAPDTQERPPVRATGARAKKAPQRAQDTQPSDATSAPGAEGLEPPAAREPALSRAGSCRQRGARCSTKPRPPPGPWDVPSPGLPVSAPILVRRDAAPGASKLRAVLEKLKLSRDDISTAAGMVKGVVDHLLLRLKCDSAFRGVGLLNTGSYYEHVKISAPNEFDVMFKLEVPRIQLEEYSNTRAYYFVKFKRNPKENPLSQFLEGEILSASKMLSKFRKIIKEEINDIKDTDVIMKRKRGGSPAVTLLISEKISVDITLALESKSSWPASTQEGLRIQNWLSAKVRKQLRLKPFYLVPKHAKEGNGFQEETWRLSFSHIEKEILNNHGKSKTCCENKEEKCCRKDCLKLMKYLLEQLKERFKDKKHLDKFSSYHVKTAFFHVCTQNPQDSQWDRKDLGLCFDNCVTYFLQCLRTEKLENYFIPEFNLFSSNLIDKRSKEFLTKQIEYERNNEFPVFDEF

Sequence of GST-mLysRS (Q99MN1 whole entry): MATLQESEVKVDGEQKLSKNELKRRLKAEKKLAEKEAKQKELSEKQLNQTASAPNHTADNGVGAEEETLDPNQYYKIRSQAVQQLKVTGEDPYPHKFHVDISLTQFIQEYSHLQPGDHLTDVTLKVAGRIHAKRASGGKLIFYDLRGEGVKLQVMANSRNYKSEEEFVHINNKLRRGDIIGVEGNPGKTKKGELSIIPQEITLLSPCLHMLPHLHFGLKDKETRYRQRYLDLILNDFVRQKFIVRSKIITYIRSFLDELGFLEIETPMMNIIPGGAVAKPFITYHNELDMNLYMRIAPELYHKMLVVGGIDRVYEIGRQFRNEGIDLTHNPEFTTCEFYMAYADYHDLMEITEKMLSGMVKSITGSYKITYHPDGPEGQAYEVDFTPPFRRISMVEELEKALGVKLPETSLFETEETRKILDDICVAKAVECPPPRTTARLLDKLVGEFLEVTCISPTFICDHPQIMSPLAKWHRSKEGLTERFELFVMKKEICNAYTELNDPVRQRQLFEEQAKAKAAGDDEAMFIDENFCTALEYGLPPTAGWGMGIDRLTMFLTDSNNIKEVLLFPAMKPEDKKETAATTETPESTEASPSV
Sequence of GST-LysRS (human) (Q15046 whole entry): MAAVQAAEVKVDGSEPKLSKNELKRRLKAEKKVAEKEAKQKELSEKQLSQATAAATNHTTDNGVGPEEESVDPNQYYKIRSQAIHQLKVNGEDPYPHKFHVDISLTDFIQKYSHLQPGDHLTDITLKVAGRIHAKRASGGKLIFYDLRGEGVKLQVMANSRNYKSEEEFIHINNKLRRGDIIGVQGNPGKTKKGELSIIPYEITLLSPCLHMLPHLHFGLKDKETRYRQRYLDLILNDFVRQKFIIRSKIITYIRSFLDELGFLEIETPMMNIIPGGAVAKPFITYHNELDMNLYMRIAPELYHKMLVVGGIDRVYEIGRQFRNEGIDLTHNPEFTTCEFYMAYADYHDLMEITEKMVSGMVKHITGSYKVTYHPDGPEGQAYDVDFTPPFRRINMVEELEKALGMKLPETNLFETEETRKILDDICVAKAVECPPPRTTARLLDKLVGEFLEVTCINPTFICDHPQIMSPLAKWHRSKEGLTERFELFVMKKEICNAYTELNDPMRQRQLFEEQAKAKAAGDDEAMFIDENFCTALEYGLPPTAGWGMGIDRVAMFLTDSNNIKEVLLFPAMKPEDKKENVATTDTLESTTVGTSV

B1: BRNA:DNA hybrid (BRNA 2/DNA 9) (DNA:RNA)
RNA: UUUCAAUUCCUUUUAGGAUUAAUCUUGAAGAUAGAGUUAA
DNA: TTAACTCTATCTTCAAGATTAATCCTAAAAGGAATTGAAA
The Kd is the free concentration of one partner at which half of the binding sites on the other are occupied at equilibrium, for simple one-to-one binding. Low values mean higher affinity, high ones lower affinity. Consider B1, for which the binding result with GST-mLysRS is on record as “binds”. The Kd was roughly 11.3 nM in the data set with GST-LysRS (human) and roughly 8.05 nM in the data set with GST-cGAS (human).
